Data published in patent US11236367B2, “Fatty acid decarboxylase and its uses” (COMMISSARIAT A L'ENERGIE ATOMIQUE ET AUX ENERGIES …, priority 2016, dated 2022).

B1: Chlorella GMC oxidoreductase: GMC protein from Chlorella variabilis NC64A; 69 kDa FAD-dependent fatty acid decarboxylase (alkane synthase) (protein, listed as Chlorella variabilis)
chain: RASAVEDIRKVLSDSSSPVAGQKYDYILVGGGTAACVLANRLSADGSKRVLVLEAGPDNTSRDVKIPAAITRLFRSPLDWNLFSELQEQLAERQIYMARGRLLGGSSATNATLYHRGAAGDYDAWGVEGWSSEDVLSWFVQAETNADFGPGAYHGSGGPMRVENPRYTNKQLHTAFFKAAEEVGLTPNSDFNDWSHDHAGYGTFQVMQDKGTRADMYRQYLKPVLGRRNLQVLTGAAVTKVNIDQAAGKAQALGVEFSTDGPTGERLSAELAPGGEVIMCAGAVHTPFLLKHSGVGPSAELKEFGIPVVSNLAGVGQNLQDQPACLTAAPVKEKYDGIAISDHIYNEKGQIRKRAIASYLLGGRGGLTSTGCDRGAFVRTAGQALPDLQVRFVPGMALDPDGVSTYVRFAKFQSQGLKWPSGITMQLIACRPQSTGSVGLKSADPFAPPKLSPGYLTDKDGADLATLRKGIHWARDVARSSALSEYLDGELFPGSGVVSDDQIDEYIRRSIHSSNAITGTCKMGNAGDSSSVVDNQLRVHGVEGLRVVDASVVPKIPGGQTGAPVVMIAERAAALLTGKATIGASAAAPATVAA
B2: Chlamydomonas enzyme: GMC oxidoreductase of Chlamydomonas reinhardtii expressed in Escherichia coli (protein, listed as Chlamydomonas reinhardtii)
chain: LSVRAAAGPAGSEKFDYVLVGGGTASCVLANKLSADGNKKVLVLEAGPTGDAMEVAVPAGITRLFAHPVMDWGMSSLTQKQLVAREIYLARGRMLGGSSGSNATLYHRGSAADYDAWGLEGWSSKDVLDWFVKAECYADGPKPYHGTGGSMNTEQPRYENVLHDEFFKAAAATGLPANPDFNDWSHPQDGFGEFQVSQKKGQRADTYRTYLKPAMARGNLKVVIGARATKVNIEKGSSGARTTGVEYAMQQFGDRFTAELAPGGEVLMCSGAVHTPHLLMLSGVGPAATLKEHGIDVVSDLSGVGQNLQDHPAAVLAARAKPEFEKLSVTSEVYDDKCNIKLGAVAQYLFQRRGPLATTGCDHGAFVRTSSSLSQPDLQMRFVPGCALDPDGVKSYIVFGELKKQGRAWPGGITLQLLAIRAKSKGSIGLKAADPFINPAININYFSDPADLATLVNAVKMARKIAAQEPLKKYLQEETFPGERASSDKDLEEYIRRTVHSGNALVGTAAMGASPAAGAVVSSADLKVFGVEGLRVVDASVLPRIPGGQTGAATVMVAERAAALLRGQATIAPSRQPVAV
B3: Phaeodactylum enzyme: GMC oxidoreductase of the diatom Phaeodactylum tricornutum expressed in Escherichia coli (protein, listed as Phaeodactylum tricornutum)
chain: YDYIICGGGLAGCVLAERLSQDESKRVLVLEAGGSDYKSLFIRIPAGVLRLFRSKYDWQHETGGEKGCNGRNVFLQRGKILGGSSCTNVCLHHRGSAEDYNSWNIPGWTATDVLPFFKQSQKDETGRDATFHGADGEWVMDEVRYQNPLSKLFLEVGEAAGLGTNDDFNNWSHPQDGVGRFQVSEVNGERCSGATAFLSKAAKRSNVIVRTGTMVRRIDFDETKTAKGITYDLMGDDTCTTFQACLKEGGEVLVTGGAIASPQLLMCSGIGPGKHLRSLGIPVVHDNSAVGENLQDHPAAVVSFKTPQKGVSVTSKLRLFGKTNPIPVFQWLFFKSGLLTSTGCDHGAFVRTSDSLEQPDLQIRFLAARALGPDGMTTYTKFRTMKTVEDGYSFQSVACRAKSKGRIRLSSSNSHVKPMIDGGYLSNQDDLATLRAGIKLGRMLGNRPEWGEYLGQEVYPGPDVQTDEEIDEYIRNSLHTANALTGTCKMGTGRGAVVGPDLRVIGVNGVRVGDSSVFPCIPGGQTATPTVMIGDRAAVFVRQPVSQLNIEIFREKGGTHPGATTASA

Experiments:
[1] = biological target: T1, Chlorella GMC oxidoreductase (Chlorella variabilis, UniProt A0A248QE08); assay: Enzymatic assay with purified recombinant enzyme (GC-MS of products); assay type: biochemical, Chlorella variabilis NC64A; conditions: for fatty acid substrate range of the enzyme: purified recombinant enzyme, white light
T1 construct: 6 His-tagged thioredoxin (N, cleaved yes); TEV protease-cleavage site (N, cleaved yes); made in house; host or cells: E. coli BL21-CodonPlus (DE3)-RIL
Protocol: (§1) All assays were performed in transparent glass vials sealed using caps with septum. Optimum pH was determined using a Teorell Stenhagen universal buffer (33 mM citric acid monohydrate, 33 mM phosphoric acid, 100 mM NaOH, 16.7 mM of boric acid, pH 8.5 adjusted with 1N HCl). Other assays were performed in 100 mM Tris HCl pH 8.5, 100 mM NaCl. Reaction mixtures (500 μL) typically contained 160 nM purified enzyme (stock ? solution 2.5 mg ml^−1) and 400 μM substrate (stock solution 10 mM in ethanol). In some assays, a lipase was used with the alkane synthase. In this case, substrate was a triacylglycerol. Generally, samples were shaken at 200 rpm during 15 min under LED-made white light at 2000 μmol ? photons m^−2s^−1. After the incubations, samples were heated at 95° C. during 15 min to stop the enzymatic reaction. Samples were cooled down and internal standard (hexadecane) was added (45 nmol from a 4.5 mM stock solution in chloroform). NaOH was then added to the reaction mixture (10 μL from a stock solution of 10 M) and samples were vortexed for 5 min. Then 250 μL of hexane was added and samples were vortexed for 5 min to extract alkanes and alkenes. The hexane phase was collected by centrifugation and analyzed by GC-MS-FID. The analysis was done by direct injection of 100 μl of the headspace into a GC-MS. In FIG. 11 activity on 1-^13C-palmitate was monitored by release of ^13CO2 using membrane inlet mass spectrometry. Illuminations were provided by CBT-120 LEDs (Luminous, Billerica) either blue (peak at 460 nm, 25 nm FWHM), or red (peak at 635 nm, 15 nm FWHM) at an intensity of 850 μmol photons m^−2 s^−1.

E. coli cells [2] = assay: Hydrocarbon content of E. coli cells expressing algal GMC oxidoreductase; assay type: cell-based, Escherichia coli; conditions: no fatty acid substrate added; absent with empty vector
Source text: Chlamydomonas reinhardtii and Phaeodactylum tricornutum Alkane synthase was amplified from a synthetic gene codon-optimized for E. coli using for Chlamydomonas reinhardtii a primer forward 5′-[…]-3′ (SEQ ID No 29) and a primer reverse, 5′-[…]-3′ (SEQ ID No 30). For Phaeodactylum tricornutum, forward primer 5′-[…]-3′ (SEQ ID No 31), reverse primer 5′-[…]-3′ (SEQ ID No 32). Genes were cloned into pLIC07 vector, which introduced downstream of the ATG start codon a cassette coding for a 6 His-tagged thioredoxin and a tobacco etch virus (TEV) protease-cleavage site. E. coli strain expressing the GMC oxidase from Chlorella variabilis NC64A, Chlamydomonas reinhardtii or Phaeodactylum triconutum were grown at 37° C. with agitation at 180 rpm and light at 100 μmole.photon.m^−2·s^−1. When OD reached 0.6, 500 μM of isopropyl β-D-1-thiogalactopyranoside was added. Cells were then grown for 24 hours at 37° C., harvested, transmethylated using methanol added with 5% sulfuric acid and hydrocarbons were extracted with hexane and analyzed by GC-MS as previously described.

E. coli cells [3] = assay: Co-expression in E. coli of a GMC oxidoreductase and a lipase; assay type: cell-based, Escherichia coli; conditions: compared to E. coli strains expressing the GMC oxidoreductases alone
Protocol: E. coli strain transformed with a vector expressing the GMC oxidase from Chlorella variabilis NC64A (or Chlamydomonas reinhardtii) and/or a vector expressing the lipase from the bacterium Staphylococcus hyicus, were grown in TB medium at 37° C. Expression was induced with 1 mM of isopropyl β-D-1-thiogalactopyranoside (added with 0.2% arabinose for co-expression). Cells were then grown overnight at 25° C. at 100 μmole.photon.m^−2·s^−1 and 6 h at 2000 μmole.photon.m^−2·s^−1. Cells were harvested (4 ml at OD=5), transmethylated using methanol added with 5% sulfuric acid and hydrocarbons were analyzed by SPME and GC-MS as previously described.

Chlamydomonas strain = assay: Hydrocarbons in Chlamydomonas strain with chloroplast genome transformed with the Chlorella enzyme cDNA; assay type: cell-based, Chlamydomonas reinhardtii; conditions: chloroplastic genome transformed with cDNA of the enzyme
Protocol: Chlamydomonas reinhardtii CC124 (nit1 nit2; mt−) and Chlamydomonas reinhardtii overexpressing the alkane synthase gene were cultured in minimal medium (Harris, 1989) in one liter photobioreactors (BIOSTAT Aplus, Sartorius Stedim Biotech) operated as turbidostats. A880 was measured continuously using a biomass probe (Excellprobe, Exner) and cultures were maintained at constant A880 by injection of fresh medium. The pH was maintained at a constant value of 7 by injection of KOH (0.2 N) or HCl (0.2 N). The cultures were stirred using a metal propeller (250 rpm). The gas flow rate was adjusted to 0.5 L min^−1. Air enriched with 2% (v/v) CO2 was generated using mass flow meters (EL flow, Bronkhorst). White light was supplied by eight fluorescent tubes (Osram Dulux L 18 W) placed radially around the photobioreactor. We used a blue filter (363 special medium blue, Lee filters, USA) and a red filter (113 magenta, Lee filters, USA) to provide respectively blue and red light. Both lights were at same intensity (35 μmol photons m^−2s^−1).
To quantify hydrocarbons together with fatty acids, transmethylation of whole cells was used. […]

[4] = biological target: T1, Chlorella GMC oxidoreductase; assay: 13CO2 release from 1-13C-palmitate with the purified enzyme (membrane inlet mass spectrometry); assay type: biochemical, Chlorella variabilis NC64A; conditions: CO2 production monitored, light on/off
Protocol: as §1, with “Then 250 μL of hexane was added and samples were vortexed for 5 min to extract alkanes and alkenes.” left out, “The analysis was done by direct injection of 100 μl of the headspace into a GC-MS.” left out, “Illuminations were provided by CBT-120 LEDs (Luminous, Billerica) either blue (peak at 460 nm, 25 nm FWHM), or red (peak at 635 nm, 15 nm FWHM) at an intensity of 850 μmol photons m^−2 s^−1.” left out
Online measurements of ^12CO2 (m/z=44) and ^13CO2 (m/z=45) were monitored using mass spectrometry (model Prima B, Thermo Scientific). […]

Molecule | dependence of pentadecane production on light intensity [1] | fatty acid substrate range of the enzyme [1] | fatty acid substrate range of the enzyme ([1]; listed as Chlorella alkane synthase) | hydrocarbons formed in E. coli cells expressing the enzyme (E. coli cells [2]) | increase in most hydrocarbons on co-expression with bacterial lipase (Uniprot P04635) (E. coli cells [3]) | change of hydrocarbon content in transformed Chlamydomonas strain (Chlamydomonas strain) | dependence of enzyme activity on light [4]
B1 | increases linearly with light intensity | active on a variety of saturated free fatty acids ranging from C12 to C22 carbons | can use C12 to C22 fatty acids | presence of long chain alkanes from 13 to 17 carbons | two to three-fold increase | an increase was noted in the heptadecene content, and heptadecane also appeared | stops immediately when light is turned off
B2 |  |  |  | formation in E. coli cells of pentadecane and heptadecane as well as their monounsaturated analogs | two to three-fold increase |  | 
B3 |  |  |  | albeit in lower amounts |  |  | 
